Assay results as given in publication PMC6864063, “Molecular basis for the interaction between human choline kinase alpha and the SH3 domain of the c-Src tyrosine kinase” (Scientific Reports, 2019).

Target: T1, Choline kinase alpha, full-length (FL) wild type (human, UniProt P35790 1-457)
T1 construct: Choline kinase alpha, unspliced variant ChoKα1, 457 residues, human, UniProt P35790; full length, up to Val457; Cleaved ChoKα constructs were the probes of the pull-downs; also called ChoKα; ChoKα1; source: E. coli Rosetta (DE3)pLysS, purified (HisTrap Ni2+ column, S-200 gel filtration); not shown: His6, N-terminal, cleaved; SUMO, N-terminal, cleaved
Assay: SPR; SH3 domains immobilised on one CM5 chip, ChoKα injected in triplicate, 0.1 to 30 µM, 2 min, PBS pH 7.5, 30 µL/min; steady-state KD from RUmax
Details: both partners purified

T1 sequence (P35790 whole entry, canonical isoform): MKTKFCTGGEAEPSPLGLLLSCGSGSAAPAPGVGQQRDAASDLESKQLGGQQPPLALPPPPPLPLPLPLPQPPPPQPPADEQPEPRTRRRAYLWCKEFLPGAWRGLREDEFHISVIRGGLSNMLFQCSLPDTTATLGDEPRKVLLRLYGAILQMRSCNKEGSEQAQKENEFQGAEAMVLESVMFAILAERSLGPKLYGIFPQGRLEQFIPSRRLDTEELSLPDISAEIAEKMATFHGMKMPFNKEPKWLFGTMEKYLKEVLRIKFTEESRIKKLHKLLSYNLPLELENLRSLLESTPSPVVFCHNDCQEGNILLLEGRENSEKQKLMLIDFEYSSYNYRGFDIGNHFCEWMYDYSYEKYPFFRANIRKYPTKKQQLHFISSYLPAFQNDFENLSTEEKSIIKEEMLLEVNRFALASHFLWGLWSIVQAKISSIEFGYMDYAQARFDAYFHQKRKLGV

B1: Hck SH3 domain (domain or fragment)
chain: not shown
notes: Src-family kinase Hck, SH3 domain; source: recombinant, purified
Kd: 25.9 µM
